“And” between values parts separate entries of the source, which are not always exact repeats. Identical values can stand only once.
Columns and labels:
Test in all cases: cell-based or functional assay
[1] = target: rat α6/α3β4 nAChR (rat) (UniProt P12392)
[2] = target: rat NMDA receptor NR1-2b/NR2D (rat) (UniProt P35439)
[3] = target: human α7 nAChR (human) (UniProt P36544)
[4] = target: rat NMDA receptor NR1-2b/NR2A (rat) (UniProt P35439)
[5] = target: rat α7 nAChR (rat) (UniProt Q05941)
[6] = target: rat NMDA receptor NR1-2b/NR2B (rat) (UniProt P35439)
[7] = target: human α6/α3β2β3 nAChR (human) (UniProt P17787)
[8] = target: rat NMDA receptor NR1-2b/NR2C (rat) (UniProt P35439)
[9] = target: rat α4β2 nAChR (rat) (UniProt P09483)
Sequence of rat α4β2 nAChR (rat) (P09483 31-630, chain 1 of 2): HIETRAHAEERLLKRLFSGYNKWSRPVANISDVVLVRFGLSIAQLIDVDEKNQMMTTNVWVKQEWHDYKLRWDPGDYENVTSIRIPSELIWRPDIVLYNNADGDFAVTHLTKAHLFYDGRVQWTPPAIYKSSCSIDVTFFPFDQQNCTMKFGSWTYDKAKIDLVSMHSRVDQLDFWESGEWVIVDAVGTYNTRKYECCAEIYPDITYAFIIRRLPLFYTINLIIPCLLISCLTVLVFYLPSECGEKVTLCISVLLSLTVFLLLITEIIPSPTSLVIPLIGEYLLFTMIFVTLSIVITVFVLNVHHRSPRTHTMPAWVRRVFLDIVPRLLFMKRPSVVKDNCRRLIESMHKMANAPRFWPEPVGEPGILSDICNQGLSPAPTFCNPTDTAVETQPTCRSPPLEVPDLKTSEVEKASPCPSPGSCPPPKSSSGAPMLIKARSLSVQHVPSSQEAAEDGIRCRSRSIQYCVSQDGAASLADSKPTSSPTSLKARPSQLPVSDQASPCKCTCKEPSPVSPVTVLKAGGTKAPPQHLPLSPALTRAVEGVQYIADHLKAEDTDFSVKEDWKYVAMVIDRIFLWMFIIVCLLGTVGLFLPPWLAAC
Sequence of rat α4β2 nAChR (rat) (P12390 25-500, chain 2 of 2, further chain): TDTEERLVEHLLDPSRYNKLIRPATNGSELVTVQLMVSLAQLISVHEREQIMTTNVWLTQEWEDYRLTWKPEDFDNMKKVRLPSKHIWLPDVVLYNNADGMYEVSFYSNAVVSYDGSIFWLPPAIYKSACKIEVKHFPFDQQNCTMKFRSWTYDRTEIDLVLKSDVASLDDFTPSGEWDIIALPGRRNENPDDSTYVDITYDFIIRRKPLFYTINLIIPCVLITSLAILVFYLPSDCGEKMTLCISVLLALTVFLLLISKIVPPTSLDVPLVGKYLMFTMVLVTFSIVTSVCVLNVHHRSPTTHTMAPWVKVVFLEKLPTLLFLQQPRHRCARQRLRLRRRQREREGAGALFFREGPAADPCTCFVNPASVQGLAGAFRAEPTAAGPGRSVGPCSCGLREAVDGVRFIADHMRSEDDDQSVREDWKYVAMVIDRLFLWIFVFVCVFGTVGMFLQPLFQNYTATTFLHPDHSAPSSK

Sequence of human α7 nAChR (human) (P36544 23-502): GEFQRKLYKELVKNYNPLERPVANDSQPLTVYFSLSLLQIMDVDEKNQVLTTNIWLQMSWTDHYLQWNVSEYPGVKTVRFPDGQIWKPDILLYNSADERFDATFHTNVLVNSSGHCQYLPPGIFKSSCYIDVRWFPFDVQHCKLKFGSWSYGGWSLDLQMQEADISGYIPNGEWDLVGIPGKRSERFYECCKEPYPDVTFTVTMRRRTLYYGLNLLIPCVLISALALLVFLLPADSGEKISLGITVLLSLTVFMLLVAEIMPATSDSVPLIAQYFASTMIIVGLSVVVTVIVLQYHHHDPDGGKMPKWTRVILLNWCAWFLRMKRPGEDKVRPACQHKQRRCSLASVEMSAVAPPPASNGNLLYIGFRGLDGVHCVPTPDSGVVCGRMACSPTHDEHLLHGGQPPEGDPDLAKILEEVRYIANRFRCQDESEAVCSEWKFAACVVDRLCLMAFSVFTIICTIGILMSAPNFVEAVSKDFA
Sequence of rat α6/α3β4 nAChR (rat) (P12392 21-495): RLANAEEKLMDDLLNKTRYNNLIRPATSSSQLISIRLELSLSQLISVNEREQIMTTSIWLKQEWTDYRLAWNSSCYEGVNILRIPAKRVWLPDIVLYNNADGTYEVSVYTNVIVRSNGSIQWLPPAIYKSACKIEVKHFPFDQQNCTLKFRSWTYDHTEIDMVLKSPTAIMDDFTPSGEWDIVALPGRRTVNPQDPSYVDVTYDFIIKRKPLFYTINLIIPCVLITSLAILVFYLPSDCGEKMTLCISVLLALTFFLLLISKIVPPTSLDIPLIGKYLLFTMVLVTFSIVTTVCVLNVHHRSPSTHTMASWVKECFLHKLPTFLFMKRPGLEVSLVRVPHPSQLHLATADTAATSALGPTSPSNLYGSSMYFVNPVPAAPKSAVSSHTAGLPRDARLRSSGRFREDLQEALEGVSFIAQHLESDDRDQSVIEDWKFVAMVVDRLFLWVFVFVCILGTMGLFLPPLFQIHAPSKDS
Sequence of human α6/α3β2β3 nAChR (human) (P17787 26-502, chain 1 of 2): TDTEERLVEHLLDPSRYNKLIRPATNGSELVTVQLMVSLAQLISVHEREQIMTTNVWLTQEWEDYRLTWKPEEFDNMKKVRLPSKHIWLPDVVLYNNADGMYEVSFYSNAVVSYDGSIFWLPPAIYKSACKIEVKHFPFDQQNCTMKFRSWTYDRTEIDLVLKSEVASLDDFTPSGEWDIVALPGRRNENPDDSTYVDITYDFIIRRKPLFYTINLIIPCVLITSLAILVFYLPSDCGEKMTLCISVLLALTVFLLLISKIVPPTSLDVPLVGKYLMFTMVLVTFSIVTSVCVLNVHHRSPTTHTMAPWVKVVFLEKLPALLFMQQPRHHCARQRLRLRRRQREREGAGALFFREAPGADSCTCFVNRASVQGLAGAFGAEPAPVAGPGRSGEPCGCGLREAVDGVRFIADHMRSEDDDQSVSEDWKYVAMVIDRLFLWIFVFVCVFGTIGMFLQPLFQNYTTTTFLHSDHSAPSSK
Sequence of human α6/α3β2β3 nAChR (human) (Q05901 22-458, chain 2 of 2, further chain): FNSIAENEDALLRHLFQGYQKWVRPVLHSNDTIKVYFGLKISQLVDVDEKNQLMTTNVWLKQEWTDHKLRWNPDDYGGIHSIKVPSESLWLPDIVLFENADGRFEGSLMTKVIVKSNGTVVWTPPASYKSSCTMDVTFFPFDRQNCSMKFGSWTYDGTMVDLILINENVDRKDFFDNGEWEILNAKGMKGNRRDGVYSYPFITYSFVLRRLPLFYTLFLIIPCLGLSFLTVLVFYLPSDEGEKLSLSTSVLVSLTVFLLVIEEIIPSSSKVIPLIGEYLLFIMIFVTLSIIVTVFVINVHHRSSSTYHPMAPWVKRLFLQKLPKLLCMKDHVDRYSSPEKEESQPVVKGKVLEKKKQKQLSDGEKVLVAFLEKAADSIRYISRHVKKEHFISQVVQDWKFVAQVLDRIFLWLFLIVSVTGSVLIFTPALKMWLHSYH
Sequence of rat α7 nAChR (rat) (Q05941 23-502): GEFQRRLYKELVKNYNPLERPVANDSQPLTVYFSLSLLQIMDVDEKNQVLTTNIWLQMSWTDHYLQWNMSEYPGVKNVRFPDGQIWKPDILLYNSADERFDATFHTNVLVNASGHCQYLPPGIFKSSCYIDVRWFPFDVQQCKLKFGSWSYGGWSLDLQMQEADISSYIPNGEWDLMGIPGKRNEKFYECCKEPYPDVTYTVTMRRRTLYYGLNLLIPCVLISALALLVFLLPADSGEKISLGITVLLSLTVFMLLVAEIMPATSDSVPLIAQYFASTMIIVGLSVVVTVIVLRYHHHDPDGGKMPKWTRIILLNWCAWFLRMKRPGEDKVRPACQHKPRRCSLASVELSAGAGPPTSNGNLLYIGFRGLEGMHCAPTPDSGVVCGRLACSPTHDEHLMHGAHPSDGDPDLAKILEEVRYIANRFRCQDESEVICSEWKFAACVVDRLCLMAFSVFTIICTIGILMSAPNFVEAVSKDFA

Substance: αO-conotoxin GeXIVA13 (GeXIVA mature peptide isomer with disulfide bonds I-III, II-IV)
- Half-blocking dose IC50, ACh-gated current, oocyte voltage clamp [1]: 483 nM
- Half-blocking dose IC50, NMDA receptor current, oocyte voltage clamp [2]: > 10000 nM
- Half-blocking dose IC50, ACh-gated current, oocyte voltage clamp [3]: 3300 nM
- Half-blocking dose IC50, NMDA receptor current, oocyte voltage clamp [4]: > 10000 nM
- Half-blocking dose IC50, ACh-gated current, oocyte voltage clamp [5]: 4960 nM
- Half-blocking dose IC50, NMDA receptor current, oocyte voltage clamp [6]: > 10000 nM and 17000 nM
- Half-blocking dose IC50, ACh-gated current, oocyte voltage clamp [7]: 141 nM
- Half-blocking dose IC50, NMDA receptor current, oocyte voltage clamp [8]: > 10000 nM

Substance: αO-conotoxin GeXIVA14 (GeXIVA mature peptide isomer with disulfide bonds I-IV, II-III)
- Half-blocking dose IC50, ACh-gated current, oocyte voltage clamp [9]: 200 nM
- Half-blocking dose IC50, ACh-gated current, oocyte voltage clamp [1]: 611 nM
- Half-blocking dose IC50, NMDA receptor current, oocyte voltage clamp [2]: > 10000 nM
- Half-blocking dose IC50, ACh-gated current, oocyte voltage clamp [3]: 865 nM
- Half-blocking dose IC50, NMDA receptor current, oocyte voltage clamp [4]: 7400 nM
- Half-blocking dose IC50, ACh-gated current, oocyte voltage clamp [5]: 1740 nM
- Half-blocking dose IC50, ACh-gated current, oocyte voltage clamp [7]: 197 nM
- Half-blocking dose IC50, NMDA receptor current, oocyte voltage clamp [8]: > 10000 nM

Source: patent US20150158921A1
